{
  "source": "the Human Domainome abundance scans (Beltran et al. 2025)",
  "parents": {"B1": {"name": "Friend leukemia integration 1 transcription factor, residues 116 to 197; numbered along this chain, Q01543 (parent)", "chain": "NMTTNERRVIVPADPTLWTQEHVRQWLEWAIKEYSLMEIDTSFFQNMDGKELCKMNKEDFLRATTLYNTEVLLSHLSYLRES"}},
  "note": "± gives the uncertainty stated by the source.",
  "data": [
    {"variants_of": "B1", "test": "abundance fitness (aPCA) (normalised: wild type 0, dead -1); higher = more abundant; growth selection in yeast, the domain comes from the species named", "conditions": "Homo sapiens", "values": [
      {"variant": "NMTTNERRVIVPADPTLWTQEYVRQWLEWAIKEYSLMEIDTSFFQNMDGKELCKMNKEDFLRATTLYNTEVLLSHLSYLRES", "note": "[H22Y]", "abundance fitness": "-0.365 ± 0.21"},
      {"variant": "NMTTNERRVIVPADPTLWTQESVRQWLEWAIKEYSLMEIDTSFFQNMDGKELCKMNKEDFLRATTLYNTEVLLSHLSYLRES", "note": "[H22S]", "abundance fitness": "-0.246 ± 0.098"},
      {"variant": "NMTTNERRVIVPADPTLWTQEHVWQWLEWAIKEYSLMEIDTSFFQNMDGKELCKMNKEDFLRATTLYNTEVLLSHLSYLRES", "note": "[R24W]", "abundance fitness": "0.054 ± 0.11"},
      {"variant": "NMTTNERRVIVPADPTLWTQEHVKQWLEWAIKEYSLMEIDTSFFQNMDGKELCKMNKEDFLRATTLYNTEVLLSHLSYLRES", "note": "[R24K]", "abundance fitness": "-0.09 ± 0.098"},
      {"variant": "NMTTNERRVIVPADPTLWTQEHVTQWLEWAIKEYSLMEIDTSFFQNMDGKELCKMNKEDFLRATTLYNTEVLLSHLSYLRES", "note": "[R24T]", "abundance fitness": "-0.058 ± 0.093"},
      {"variant": "NMTTNERRVIVPADPTLWTQEHVIQWLEWAIKEYSLMEIDTSFFQNMDGKELCKMNKEDFLRATTLYNTEVLLSHLSYLRES", "note": "[R24I]", "abundance fitness": "-0.183 ± 0.24"},
      {"variant": "NMTTNERRVIVPADPTLWTQEHVCQWLEWAIKEYSLMEIDTSFFQNMDGKELCKMNKEDFLRATTLYNTEVLLSHLSYLRES", "note": "[R24C]", "abundance fitness": "-0.347 ± 0.28"},
      {"variant": "NMTTNERRVIVPADPTLWTQEHVYQWLEWAIKEYSLMEIDTSFFQNMDGKELCKMNKEDFLRATTLYNTEVLLSHLSYLRES", "note": "[R24Y]", "abundance fitness": "-0.278 ± 0.29"},
      {"variant": "NMTTNERRVIVPADPTLWTQEHVGQWLEWAIKEYSLMEIDTSFFQNMDGKELCKMNKEDFLRATTLYNTEVLLSHLSYLRES", "note": "[R24G]", "abundance fitness": "0.039 ± 0.082"},
      {"variant": "NMTTNERRVIVPADPTLWTQEHVHQWLEWAIKEYSLMEIDTSFFQNMDGKELCKMNKEDFLRATTLYNTEVLLSHLSYLRES", "note": "[R24H]", "abundance fitness": "-0.161 ± 0.31"},
      {"variant": "NMTTNERRVIVPADPTLWTQEHVSQWLEWAIKEYSLMEIDTSFFQNMDGKELCKMNKEDFLRATTLYNTEVLLSHLSYLRES", "note": "[R24S]", "abundance fitness": "0.093 ± 0.083"},
      {"variant": "NMTTNERRVIVPADPTLWTQEHVEQWLEWAIKEYSLMEIDTSFFQNMDGKELCKMNKEDFLRATTLYNTEVLLSHLSYLRES", "note": "[R24E]", "abundance fitness": "-0.348 ± 0.17"},
      {"variant": "NMTTNERRVIVPADPTLWTQEHVLQWLEWAIKEYSLMEIDTSFFQNMDGKELCKMNKEDFLRATTLYNTEVLLSHLSYLRES", "note": "[R24L]", "abundance fitness": "-0.011 ± 0.07"},
      {"variant": "NMTTNERRVIVPADPTLWTQEHVMQWLEWAIKEYSLMEIDTSFFQNMDGKELCKMNKEDFLRATTLYNTEVLLSHLSYLRES", "note": "[R24M]", "abundance fitness": "-0.131 ± 0.1"},
      {"variant": "NMTTNERRVIVPADPTLWTQEHVFQWLEWAIKEYSLMEIDTSFFQNMDGKELCKMNKEDFLRATTLYNTEVLLSHLSYLRES", "note": "[R24F]", "abundance fitness": "-0.044 ± 0.39"},
      {"variant": "NMTTNERRVIVPADPTLWTQEHVAQWLEWAIKEYSLMEIDTSFFQNMDGKELCKMNKEDFLRATTLYNTEVLLSHLSYLRES", "note": "[R24A]", "abundance fitness": "0.106 ± 0.082"},
      {"variant": "NMTTNERRVIVPADPTLWTQEHVPQWLEWAIKEYSLMEIDTSFFQNMDGKELCKMNKEDFLRATTLYNTEVLLSHLSYLRES", "note": "[R24P]", "abundance fitness": "-0.804 ± 0.22"},
      {"variant": "NMTTNERRVIVPADPTLWTQEHARQWLEWAIKEYSLMEIDTSFFQNMDGKELCKMNKEDFLRATTLYNTEVLLSHLSYLRES", "note": "[V23A]", "abundance fitness": "-0.632 ± 0.14"},
      {"variant": "NMTTNERRVIVPADPTLWTQEHFRQWLEWAIKEYSLMEIDTSFFQNMDGKELCKMNKEDFLRATTLYNTEVLLSHLSYLRES", "note": "[V23F]", "abundance fitness": "-0.686 ± 0.43"},
      {"variant": "NMTTNERRVIVPADPTLWTQEHWRQWLEWAIKEYSLMEIDTSFFQNMDGKELCKMNKEDFLRATTLYNTEVLLSHLSYLRES", "note": "[V23W]", "abundance fitness": "-0.814 ± 0.1"},
      {"variant": "NMTTNERRVIVPADPTLWTQEHQRQWLEWAIKEYSLMEIDTSFFQNMDGKELCKMNKEDFLRATTLYNTEVLLSHLSYLRES", "note": "[V23Q]", "abundance fitness": "-0.92 ± 0.3"},
      {"variant": "NMTTNERRVIVPADPTLWTQEHIRQWLEWAIKEYSLMEIDTSFFQNMDGKELCKMNKEDFLRATTLYNTEVLLSHLSYLRES", "note": "[V23I]", "abundance fitness": "-0.386 ± 0.14"},
      {"variant": "NMTTNERRVIVPADPTLWTQEHMRQWLEWAIKEYSLMEIDTSFFQNMDGKELCKMNKEDFLRATTLYNTEVLLSHLSYLRES", "note": "[V23M]", "abundance fitness": "-0.844 ± 0.3"},
      {"variant": "NMTTNERRVIVPADPTLWTQEHGRQWLEWAIKEYSLMEIDTSFFQNMDGKELCKMNKEDFLRATTLYNTEVLLSHLSYLRES", "note": "[V23G]", "abundance fitness": "-0.931 ± 0.27"},
      {"variant": "NMTTNERRVIVPADPTLWTQEHCRQWLEWAIKEYSLMEIDTSFFQNMDGKELCKMNKEDFLRATTLYNTEVLLSHLSYLRES", "note": "[V23C]", "abundance fitness": "-0.752 ± 0.22"},
      {"variant": "NMTTNERRVIVPADPTLWTQEHDRQWLEWAIKEYSLMEIDTSFFQNMDGKELCKMNKEDFLRATTLYNTEVLLSHLSYLRES", "note": "[V23D]", "abundance fitness": "-0.759 ± 0.3"},
      {"variant": "NMTTNERRVIVPADPTLWTQEHKRQWLEWAIKEYSLMEIDTSFFQNMDGKELCKMNKEDFLRATTLYNTEVLLSHLSYLRES", "note": "[V23K]", "abundance fitness": "-0.752 ± 0.29"},
      {"variant": "NMTTNERRVIVPADPTLWTQEHRRQWLEWAIKEYSLMEIDTSFFQNMDGKELCKMNKEDFLRATTLYNTEVLLSHLSYLRES", "note": "[V23R]", "abundance fitness": "-0.74 ± 0.12"},
      {"variant": "NMTTNERRVIVPADPTLWTQEHSRQWLEWAIKEYSLMEIDTSFFQNMDGKELCKMNKEDFLRATTLYNTEVLLSHLSYLRES", "note": "[V23S]", "abundance fitness": "-0.538 ± 0.19"},
      {"variant": "NMTTNERRVIVPADPTLWTQEHTRQWLEWAIKEYSLMEIDTSFFQNMDGKELCKMNKEDFLRATTLYNTEVLLSHLSYLRES", "note": "[V23T]", "abundance fitness": "-0.23 ± 0.13"},
      {"variant": "NMTTNERRVIVPADPTLWTQEHLRQWLEWAIKEYSLMEIDTSFFQNMDGKELCKMNKEDFLRATTLYNTEVLLSHLSYLRES", "note": "[V23L]", "abundance fitness": "-0.175 ± 0.068"},
      {"variant": "NMTTNERRVIVPADPTLWTQEHPRQWLEWAIKEYSLMEIDTSFFQNMDGKELCKMNKEDFLRATTLYNTEVLLSHLSYLRES", "note": "[V23P]", "abundance fitness": "-0.044 ± 0.14"},
      {"variant": "NMTTNERRVIVPADPTLWTYEHVRQWLEWAIKEYSLMEIDTSFFQNMDGKELCKMNKEDFLRATTLYNTEVLLSHLSYLRES", "note": "[Q20Y]", "abundance fitness": "-0.109 ± 0.4"},
      {"variant": "NMTTNERRVIVPADPTLWTWEHVRQWLEWAIKEYSLMEIDTSFFQNMDGKELCKMNKEDFLRATTLYNTEVLLSHLSYLRES", "note": "[Q20W]", "abundance fitness": "-0.123 ± 0.11"}
    ]}
  ]
}
